Values of other authors, collected in patent publication US20170128542A1 (Albireo Pharma, Inc., priority 2015, published 2017).

Legend:
[1] = not given; remark: listed apart in the source

**Q.** With glucagon as the substance, how does the “Onset of action after injection” value read?
**A.** 5 to 20 min

**Q.** What about the “Glucagon decomposed into degradation products” value ([1]; acidic solution (pH 2-4), within 24 hours at 37° C.) of the same substance?
**A.** 5-70%

**Q.** What about the “Aggregation in aqueous solutions of pH 3 or less” value ([1]; aqueous solution, pH 3 or less) of the same substance?
**A.** aggregate to form a gel within an hour
